Entries after “also recorded” stand apart in the source; their conditions may differ.
B1: TGFβ3: recombinant Transforming Growth Factor beta 3 isoform, injected subconjunctivally (protein)
chain: ALDTNYCFRNLEENCCVRPLYIDFRQDLGWKWVHEPKGYYANFCSGPCPYLRSSDTTHSTVLGLYNTLNPEASASPCCVPQDLEPLTILYYVGRTPKVEQLSNMVVKSCKCS
B2: Nodal: composition that up-regulates SMAD-signaling (protein, UniProt Q96S42 238-347, looked up)
Nodal homolog: HHLPDRSQLCRKVKFQVDFNLIGWGSWIIYPKQYNAYRCEGECPNPVGEEFHPTNHAYIQSLLKRYQPHRVPSTCCAPVKTKPLSMLYVDNGRVLLDHHKDMIVEECGCL
B3: TGβ2: TGFβ isoform 2 administered as part of a therapeutic composition (protein)
chain: ALDAAYCFRNVQDNCCLRPLYIDFKRDLGWKWIHEPKGYNANFCAGACPYLWSSDTQHTKVLSLYNTINPEASASPCCVSQDLEPLTILYYIGNTPKIEQLSNMIVKSCKCS

Assays:
[1] = Example 2: promotion of re-epithelialization; assay type: in vivo; conditions: end point: establishment of a biological barrier or Superficial Punctate Keratitis
Text: (§1) Compositions can also be administered in effective amounts to promote re-epithelialization, reduce the occurrence and/or severity of ulcers and preserve nerve function (appropriate signal potentiation) and/or integrity (physical state of the nerve itself). Objective measures for re-epithelialization include, without limitation, slit lamp microscopy with fluorescence staining. Objective measures for reduction and/or severity of ulcers include, without limitation, slit lamp microscopy for surface (ir)regularity. Objective measures for preservation of nerve function include corneal sensitivity measures. Objective measures for preservation of nerve integrity include in vitro confocal microscopy to determine the nerve fiber health (length, diameters and branches.)
(§2) A number of experiments are conducted to further define the role of up-regulation of TGFβ1, TGFβ2, TGFβ3, Serpine 1, fibronectin, lumican, epidermal growth factor ligands, activin and Nodal as well as the down-regulation of sEH/Ephx2 in the promotion of wound healing, promotion of re-epithelialization, reduction of the occurrence and/or severity of ulcers, preservation of nerve function and/or integrity, promotion of eye health and maintenance of vision. In the experiments, each experiment having relevant control conditions, each of the listed compounds is administered as part of a therapeutic composition (including as a direct therapeutic and/or as part of a genetic therapy as described herein).

[2] = Example 2: occurrence and/or severity of ulcers; assay type: in vivo; conditions: end point: slit lamp microscopy for surface (ir)regularity
Text: as §1, §2

STZ B6 mouse corneas = assay: Epithelial wound closure in STZ B6 mouse corneas after subconjunctival recombinant TGFβ3; assay type: in vivo; conditions: STZ B6 mice, 14 ng subconjunctival 4 hours prior to wounding, 2 mm wound, 16 and 24 hpw, vs PBS
Description: (§3) FIGS. 7A-7C. Effects of TGFβ3 on epithelial wound closure in B6 and STZ B6 mouse corneas. […] A 2 mm epithelial wound was made and allowed to heal for 16 h in B6 mice and 24 h in STZ B6 mice, and then fluorescence stained, and photographed. 1) NL cornea injected with PBS, 2) NL corneal injected with TGFβ3, 3) DM (STZ) cornea injected with PBS, 4) DM corneal injected with TGFβ3. (FIG. 7B) Changes in the mean of the remaining wound areas in pixels were calculated by Adobe Photoshop software with p value listed, n=5. (FIG. 7C). CECs collected during wounding (first 2 lanes) and 16 hpw (1, 2) or 24 hpw (3, 4) in PBS (1, 3) and TGFβ3 (2, 4) treated corneas were extracted and subjected to realtime-PCR analysis for Serpine 1 expression, N=3, **p<0.01.
Corneal Epithelial Debridement Wound. Anesthetized rats and mice were first demarcated with a trephine in the central cornea (5-mm circular wound for rats and 2 mm for mice) and CECs were removed with a blunt scalpel blade under a dissecting microscope (4; 6; 7). The blade with scraped CECs was immediately immersed into liquid nitrogen and the visible ice was collected into a test tube, placed on dry ice and stored at −80° C. The sample was marked as unwounded (UW). Bacitracin ophthalmic ointment was applied to the cornea after surgery to prevent infection. […]

[3] = system: Smad2/3, TGFβ1, TGFβ2, TGFβ3 in WH CECs; assay: Western blotting of CECs of TGFβ3 treated GK rat corneas; assay type: in vivo; conditions: GK rats
Description: (§4) FIGS. 6A-6C. Effects of TGFβ3 on epithelial wound closure in GK rat corneas. (FIG. 6A) A total of 40 ng recombinant TGFβ3, with PBS as the control, was injected into subconjunctival space at two sites (10 μl each) of GK rats 4 hours prior to wounding. Corneal epithelial wound of 5-mm diameter was made and allowed to heal for 42 h and then fluorescence stained, and photographed. (FIG. 6B) Changes in the mean of the remaining wound areas in pixels were calculated by Adobe Photoshop software with p value listed, n=5. (FIG. 6C). CECs collected during wounding (Con) and 42 hpw in PBS and TGFβ3 treated corneas were extracted and subjected to Western blotting with listed antibodies; two samples out of 5 from post wounding corneas were shown with actin as the internal control. The anti-TGFβ1-3 antibodies recognized both latent (44, 25, 47 kDa, respectively) and active (15, 12, 15 kDa, respectively) forms, giving two bands in Western blotting. These figures are representatives of 5 corneas per condition from 2 independent experiments; ** p<0.01.
Determination of Protein Expression and Phosphorylation by Western Blot Analysis. The epithelial cells removed during corneal debridement (the control) and post-wound, but prior to wound closure, were collected from NL and DM rat corneas and lysed with radioimmunoprecipitation assay (RIPA) buffer. Protein concentrations were determined using Micro BCA kits. Levels of various proteins or their phosphorylation were determined using specific antibodies. For each condition, two samples were shown with β-actin levels as the internal controls.
Exogenous TGFβ3 accelerates delayed epithelial wound closure in DM corneas. Whether exogenously-added TGFβ3 in DM corneas accelerates delayed epithelial wound closure in GK and STZ B6 mice was assessed next. […] To assess if exogenously added TGFβ3 affects the isoform expression, antibodies against TGFβ1-3 were used for Western blotting. […] While some elevated active TGFβ3 molecules could be from exogenously added TGFβ3 (15 kDa), the latent form (47 kDa) can only be from endogenous sources, indicating an auto-regulation of TGFβ3 expression in rat corneas.

Serpine 1 = assay: Realtime-PCR for Serpine 1 expression in CECs of TGFβ3 treated mouse corneas; assay type: in vivo; conditions: NL and DM mice, 16 or 24 hpw
Description: as §3
RNA Extraction and Real-time PCR. For RNA isolation, CECs were scraped off of corneas, with 2 corneas pooled into 1 tube as one sample. RNA was extracted from the collected CECs using RNeasy Mini Kit (QIAGEN). cDNA was generated with an oligo(dT) primer (Invitrogen) followed by analysis using real-time PCR with the Power SYBR Green PCR Master Mix (AB Applied Biosystems), based on the expression of β-actin.

[4] = system: corneas of type 1 DM rats and mice and type 2 DM rats; assay: Epithelial wound healing in DM corneas of three rodent models (summary statements); assay type: in vivo; conditions: exogenous TGFβ3
Text: The described genome-wide cDNA microarrays were used to compare the gene expression profiles of WH versus UW and DM versus NL CECs. […] Without being bound to a single theory, the effects of TGFβs on epithelial wound closure are related to its ability to activate Smad-dependent and -independent pathways, to modulate its own expression, and to mediate target gene expression.
The altered expression of TGFβ3 was also confirmed in cultured human corneas post wound healing, indicating the relevance of the study. […] While the mechanisms underlying hyperglycemia-suppressed wound-induced TGFβ3 expression is unclear, early inhibitory effects of hyperglycemia on TGFβ3 expression, which differs from that of TGFβ1 (42), may exacerbate the suppression of TGFβ3 up-regulation in response to wounding.

GK rat corneas = assay: Epithelial wound closure in GK rat corneas after subconjunctival recombinant TGFβ3; assay type: in vivo; conditions: GK rats, 40 ng in 20 μl subconjunctival 4 hours prior to debridement, 5-mm wound, 42 h, vs PBS
Description: as §4
Corneal Epithelial Debridement Wound. […]
Exogenous TGFβ3 accelerates delayed epithelial wound closure in DM corneas. Whether exogenously-added TGFβ3 in DM corneas accelerates delayed epithelial wound closure in GK and STZ B6 mice was assessed next. […]

adult skin wounds = conditions: failure due to increased angiogenesis in post-surgery skin; cited from earlier work

Molecule | Treatment Outcome: Promotes re-epithelialization [1] | Treatment Outcome: Reduces occurrence and/or severity of ulcers [2] | other results
Activin | Promotes | Reduces occurrence | –
TGβ1: TGFβ isoform 1 administered as part of a therapeutic composition | Promotes | Reduces occurrence | –
B1 | Promotes | Reduces occurrence | rate of epithelial closure (STZ B6 mouse corneas): significantly increased; Smad2/3 phosphorylation in WH CECs ([3]; 42 hpw): enhancing; TGFβ3 expression (latent form, endogenous) ([3]; WH CECs): increased; TGFβ1 expression ([3]; WH DM CECs): no effects; levels of TGFβ2 ([3]; all samples): low and unchanged; Serpine 1 mRNA levels (Serpine 1): correlated to the levels of TGFβ3 activity; epithelial wound healing in DM corneas [4]: promotes epithelial wound healing; also recorded: partially restores the healing rate; rate of wound closure (GK rat corneas): substantially increasing; outcome of phase 3 clinical trials as anti-scarring agent (adult skin wounds): considered a failure
B2 | Promotes | Reduces occurrence | –
B3 | Promotes | Reduces occurrence | –
